Data reported in US20050152896A1 (Amgen, published 2005).
Substitutions are numbered along the chain they refer to.

T1: human galanin (mature, processed form) (human, UniProt P22466 33-62, 125I-labelled in the filtration and immunoprecipitation assays; biotinylated in the IGEN assay and in the BIAcore assay of Table 4)
T1 construct: mature; the assays used the mature peptide; also called biotinylated galanin
T1 peptide (looked up): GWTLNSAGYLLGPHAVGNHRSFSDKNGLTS

T2: murine galanin (mature, processed form) (murine, UniProt P47212 33-61, not fully specified)
T2 construct: mature
T2 peptide (looked up): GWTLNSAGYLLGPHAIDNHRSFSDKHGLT

T3: peptide of the 14 C-terminal amino acids of human galanin (human, UniProt P22466 49-62)
T3 construct: domain: 14 C-terminal amino acids of human galanin
T3 peptide (looked up): GNHRSFSDKNGLTS

B1: murine monoclonal antibody 4B3 (antibody, mouse IgG1, V domains shown)
VH: EIQLQQSEAELVKPGASVRLSCATSGFNIKDYYIHWVKQTTEQGLEWIGRIDPEDGETEYAPKFQGKATIAADTSSNTAYLLLNSLSSEDTAVYYCTRGYASWGQGTTLTVSS
VL: DVLMTQTPLSLSVSLGDQASISCRSSQSFVHSDGNTYLEWYLQKSGQSPKLLIYKVSNRFSGVPDRFSGSGSGTDFTLKINRVEAEDLGVYYCFQGSHVPYTFGGGTKLEIKR
notes: purified from ascites
B2: murine monoclonal antibody 1G12 (antibody, mouse IgG1, V domains shown)
VH: EVQLQQSGAELVKPGASVQLSCTASGFNIKDYYIHWVQQRTEQGLEWIGRIDPEDGEIEYAPKFQDKATITADTSSNTAYLQLSSLTSEDSAVYYCTRGYASWGQGTTLTVSS
VL: B1 VL with S12P, S28T, S45P, N81S
notes: The legend prints 'murine 1G2' for the VH
B3: murine monoclonal antibody 2F8 (antibody, mouse IgG1, V domains shown)
VH: EVQLQQSGAELVRPGALVKLSCKASGFNIEDYYIHWVRQRPEEGLEWIGRIDPENGNTIYDPKFQGKASLTADTSSNTAYLQLSSLTSEDTAVYFCARGYVDWGQGTLVTVSA
VL: B1 VL with S12P, F29I, N35D, S45P, N81I, V90L, Y92F
B4: murine monoclonal antibody 1D7 (antibody, mouse IgG1, V domains shown)
VH: B1 VH
VL: B1 VL
notes: purified from ascites; also called hybridoma 1D7D1 (ATCC PTA-5650)
B5: murine monoclonal antibody 5B4 (antibody, mouse IgG2a, V domains shown)
VH: B3 VH with I34M, L70I, F95Y, A97V
VL: B1 VL with S12P, F29I, N35D, S45A, N81S, V90L
notes: purified from ascites; also called hybridoma 5B4C1 (ATCC PTA-5651)
B6: murine monoclonal antibody 2H9 (antibody, mouse IgG1, V domains shown)
VH: B1 VH
VL: B1 VL
B7: murine monoclonal antibody 1A1 (antibody, V domains shown)
VH: EIQLQQSEAELVRPGALVKLSCKTSGFNIKDYYMHWVKQRPEQGLEWIGRIDPENDNSIYDPNFQGKASITADTSSNTAYLQLSSLTSEDTAVYYCVRGYVDWGQGTLVTVSA
VL: B1 VL with S12P, F29I, N35D, S45P, Y54F, N81S
notes: the legend is followed
B8: murine monoclonal antibody 2E11 (antibody, V domains shown)
VH: EIQLQQSGAEVMKPGASVKISCKATGYTFSNYWIEWIKQRPGHGLEWIGEILPGSESTKYNEKFKGKATFTTDTSSNTAYMQLSSLTSEDSAVYYCATFYGGFDYWGQGTTLTVSS
VL: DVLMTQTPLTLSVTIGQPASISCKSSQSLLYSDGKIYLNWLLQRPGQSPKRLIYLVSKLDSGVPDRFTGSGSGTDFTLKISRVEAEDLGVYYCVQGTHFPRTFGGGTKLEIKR
notes: the legend is followed
B9: humanized 5B4 IgG1: light chain zu5B4 v04 with heavy chain zu5B4 v04 (antibody, V domains shown)
VH: EVQLVQSGAEVKKPGATVKISCKVSGFNIEDYYMHWVQQAPGKGLEWMGRIDPENGNTIYDPKFQGRVTITADTSTNTAYLDLSSLRSEDTAVYYCARGYVDWGQGTLVTVSS
VL: DVVMTQSPLSLPVTLGQPASISCRSSQSIVHSDGDTYLEWYLQRPGQSPMLLIYKVSNRFSGVPDRFSGSGSGTDFTLKITRVEAEDVGVYYCFQGSHVPYTFGGGTKVEIKR
notes: also called P1A7 (as IgG1); humanized 5B4-v4
B10: humanized 5B4 IgG1: light chain zu5B4 v04 with heavy chain zu5B4 v13 (antibody, V domains shown)
VH: B9 VH with M48I, L81M
VL: B9 VL
notes: Human IgG1 / human kappa, expressed in E5 cells; VH of humanized 5B4-v13, VL of humanized 5B4-v4
B11: humanized 5B4 IgG1: light chain zu5B4 v13 with heavy chain zu5B4 v04 (antibody, V domains shown)
VH: B9 VH
VL: B9 VL with L42Q
notes: Human IgG1 / human kappa, expressed in E5 cells; VH of humanized 5B4-v4, VL of humanized 5B4-v13
B12: humanized 5B4 IgG1: light chain zu5B4 v04 with heavy chain zu5B4 v11 (antibody, V domains shown)
VH: B9 VH with L81M
VL: B9 VL
notes: Human IgG1 / human kappa, expressed in E5 cells; VH of humanized 5B4-v11, VL of humanized 5B4-v4
B13: humanized 5B4 IgG1: light chain zu5B4 v04 with heavy chain zu5B4 v06 (antibody, V domains shown)
VH: B9 VH with M48I, V68A
VL: B9 VL
notes: Human IgG1 / human kappa, expressed in E5 cells; VH of humanized 5B4-v6, VL of humanized 5B4-v4
B14: humanized 5B4 IgG1: light chain zu5B4 v04 with heavy chain zu5B4 v12 (antibody, V domains shown)
VH: B9 VH with V68A, N77D
VL: B9 VL
notes: Human IgG1 / human kappa, expressed in E5 cells; VH of humanized 5B4-v12, VL of humanized 5B4-v4
B15: humanized 5B4 IgG1: light chain zu5B4 v05 with heavy chain zu5B4 v04 (antibody, V domains shown)
VH: B9 VH
VL: B9 VL with L42Q, L51S
notes: Human IgG1 / human kappa, expressed in E5 cells; VH of humanized 5B4-v4, VL of humanized 5B4-v5
B16: Fab fragment of murine antibody 4B3 (Fab, V domains shown)
VH: B1 VH
VL: B1 VL
notes: Papain Fab of the hybridoma antibody; also called 4B3 Fab
B17: Fab fragment of murine antibody 5B4 (Fab, V domains shown)
VH: B3 VH with I34M, L70I, F95Y, A97V
VL: B1 VL with S12P, F29I, N35D, S45A, N81S, V90L
notes: Papain Fab of the hybridoma antibody; also called 5B4 Fab
B18: Fab fragment of murine antibody 1D7 (Fab, V domains shown)
VH: B1 VH
VL: B1 VL
notes: Papain Fab of the hybridoma antibody; also called 1D7 Fab

Target: T1, human galanin (mature, processed form)
Assay: BIAcore SPR; biotinylated galanin on a streptavidin chip, MAb flowed
Method: The galanin binding assay uses the ORIGEN technology (IGEN, Gaithersburg, Md.) and measures solution state binding. 0.75 μg/ml biotinylated galanin and 2 μg/ml ORI-TAG anti-mouse IgG were preincubated with serially diluted MAbs. 0.4 mg/ml streptavidin-coated Dyna beads were added, incubated, and read on an IGEN M8 Analyzer. In the plasmon surface resonance assay, biotinylated galanin was bound to a streptavidin-coated sensor chip and MAbs allowed to pass through the flow cells in order to generate on and off rates. In every assay tested, the MAbs ranked in virtually the same order.

Going from B1 to B2, the Ka falls from 1.4e+10 M⁻¹ to 9.3e+09 M⁻¹ (1.5-fold).

Compared with B3, B4 is 2.2-fold higher in Ka: 6.8e+09 M⁻¹ for the first, 1.5e+10 M⁻¹ for the second.

B5 and B6 are within 1.5-fold of each other in Ka: 7.5e+09 M⁻¹ for the first, 6.7e+09 M⁻¹ for the second.

Compared with B7, B8 is 5-fold lower in Ka: 2.5e+09 M⁻¹ for the first, 5e+08 M⁻¹ for the second.

Going from B1 to B2, the Kd rises from 0.07 nM to 0.11 nM (1.6-fold).

Compared with B3, B4 is 1.7-fold lower in Kd: 0.15 nM for the first, 0.09 nM for the second.

B5 and B6 are within 1.5-fold of each other in Kd: 0.13 nM for the first, 0.15 nM for the second.

Going from B7 to B8, the Kd rises from 0.4 nM to 2.1 nM (5.2-fold). The first binds more tightly here.

Target: T1, human galanin (mature, processed form)
Assay: BIAcore 3000; IgG captured by goat anti-human IgG Fc on CM5, human galanin peptide flowed; 1:1 Langmuir fit
Text: In terms of ELISA signal, the top 17 Fab fragments consisted of various combinations of three light chains and five heavy chains. For example, the heavy variable region of Fab P1A7 was identical to the heavy variable regions of Fabs R2E9 and R2E8. The five heavy variable regions were amplified by PCR and the PCR products were subcloned into a human IgG1 heavy chain mammalian expression vector, pVE414N. The three light variable region products were amplified by PCR and were subcloned into a human kappa light chain mammalian expression vector, pDC414N. The sequences of the heavy and light chains constructs were confirmed by DNA sequencing. Fab fragment P1A7 yielded the strongest ELISA signal. To determine which heavy or light variable regions might yield the highest affinity antibody, each heavy chain was co-expressed with the P1A7 light chain, and each light chain was co-expressed with the P1A7 heavy chain. These IgG heavy and light chain combinations were expressed in […] and were purified from the cell culture medium using protein A affinity chromatography. Affinities of these purified antibodies were measured on a BIAcore 3000. Goat anti-human IgG Fc antibody immobilized on CM5 sensor chips was used to capture P1A7 and the variants. Human galanin peptide was flowed over the chip surface with captured anti galanin antibody. The binding kinetics was analyzed using the model fit of 1:1 Langmuir+local Rmax+Mass Transfer. […] Antibodies with P1A7 light chain paired with the five different heavy chains yield nearly identical dissociation constants.

B9 and B10 are the same in Kd: 1.8 nM for the first, 1.8 nM for the second.

B11 and B12 are within 1.5-fold of each other in Kd: 2 nM for the first, 1.7 nM for the second.

B13 and B14 are within 1.5-fold of each other in Kd: 1.6 nM for the first, 1.5 nM for the second.

B15 showed a Kd of 2.3 nM.

B9 and B10 are within 1.5-fold of each other in koff: 0.0059 s⁻¹ for the first, 0.005 s⁻¹ for the second.

B11 and B12 are within 1.5-fold of each other in koff: 0.007 s⁻¹ for the first, 0.0056 s⁻¹ for the second.

B13 and B14 are within 1.5-fold of each other in koff: 0.0051 s⁻¹ for the first, 0.0048 s⁻¹ for the second.

For B15, the koff was 0.0095 s⁻¹.

B9 and B10 are within 1.5-fold of each other in kon: 3.3e+06 M⁻¹ s⁻¹ for the first, 2.8e+06 M⁻¹ s⁻¹ for the second.

B11 and B12 are within 1.5-fold of each other in kon: 3.5e+06 M⁻¹ s⁻¹ for the first, 3.2e+06 M⁻¹ s⁻¹ for the second.

B13 and B14 are the same in kon: 3.2e+06 M⁻¹ s⁻¹ for the first, 3.2e+06 M⁻¹ s⁻¹ for the second.

Binder B15 has a kon of 4.2e+06 M⁻¹ s⁻¹.

Target: T2, murine galanin (mature, processed form)
Assay: epitope mapping

B1: binds.
B2: binds.
B3: binds.
B4: binds.
B5: binds.
B8: binds.

Target: T3, peptide of the 14 C-terminal amino …
Assay: co-crystal structure

B16: binds.
B17: binds.
B18: binds.
